Laboratory results taken from the nanobody polyreactivity screen of Harvey et al. (2022).

Experiment: yeast display, Sf9 membrane polyspecificity reagent, FACS + sequencing; frameworks hold sequencing errors
Outline: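 Synthetic nanobody libraries on Saccharomyces cerevisiae BJ5465 were galactose-induced for 36–48 hours, stained 1 hour at 4 °C with 10% biotinylated, detergent-solubilized Sf9 membrane reagent and enriched on streptavidin microbeads. FACS then separated cells into low and high (top ~1%) gates by anti-HA (expression) and streptavidin (reagent binding) fluorescence. Genes were colony-PCR amplified, MiSeq 2 × 250 sequenced and CDR-length filtered. A clone's polyreactivity label is that of its gate of origin.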

Row | Sequence | polyreactivity (PSR sort gate)
1 | QVQLVESGGGLVQAGGSLRLSCAASGRTFSYYAMGWYRQAPGKERELVAAIRRSSGTTYYADSVKGRFTISSDNAKNTVYLQMNSLKPEDTAVYYCNARSRRASIKRDYWGQGTQVTVSS | high polyreactivity
2 | QVQLVESGGGLVQAGGSLRLSCAASGRTFSYYAMGWYRQAPGKERELVAAISSGGSTNYADSVKGRFTISRDNAKNTVYLQMNSLKPEDPAFYYCANSSIWGSGRVRWVTYYFWGQGTQVTVSS | low polyreactivity
3 | QVQLVESGGGLVQAGGSLRLSCAASGRTFSYYAMGWYRQAPGKERELVARITYRGGRTYYADSVKGRFTISRDHAKNTVYLQMNSLKPEDTAVYYCNADAIYKRGGRDYWGQGTQVTVSS | high polyreactivity
4 | QVQLVESGGGLVQAGGSLRLSCAASGRTFSYYAMGWYRQAPGKERELVASISGGGRTNYADSVKGRFTISRDNAKITVYLQMNSVKPEDTAVYYCAASYQITRQYKRGYWGQGTQVTVSS | high polyreactivity
5 | QVQLVESGGGLVQAGGSLRLSCAASGRTFSYYARGWYRQAPGKERELVAAISSGGSTNYADSVKGRFTISRDNAKNTVYFQMNSLKPEDTAVYYCAALWSGYKFNYWGQGTQVTVSS | low polyreactivity
6 | QVQLVESGGGLVQAGGSLRLSCAASGRTFTEYAMGWYRQAPGKEREFVARIRWSDGSTYYADSVKGRFTISRDNAKNTVYLQMNSLLPEDTAVYYCAARYIETPVTVLSLMDYWGQGTQVTVSS | low polyreactivity
7 | QVQLVESGGGLVQAGGSLRLSCAASGRTFTFYAMGWYRQAPGKERELVAAIRRGGSTIYADSVKGRFTISRDNAKNTVYLQMNSLKPEDTAVYYCNKRVWYPYWTLDYWGQGTQVTVSS | low polyreactivity
8 | QVQLVESGGGLVQAGGSLRLSCAASGRTFTFYAMGWYRQAPGKERELVAAITWSGGSTYYADSVKGRFTISRDNAKNTVYLQRNSLKPEDTAVYYCAKLDVISDDLDYWGQGTQVTVSS | low polyreactivity
9 | QVQLVESGGGLVQAGGSLRLSCAASGRTFTHYAMGWYRQAPGKERELVAAITASGGSTYYADSVKGRFTISRDNAQNTVYLQMNSLKPEDTAVYYCATEANQRTLNDTVKDYDYWGQGTQVTVSS | low polyreactivity
10 | QVQLVESGGGLVQAGGSLRLSCAASGRTFTINTMGWYRQAPGKERELVAAITVSGGSTYYADSVKGRFTISRDNAKNTVYLQMNSLKPEDTAVYYCAAQRSYVNLGQTHDYWGQGTQVNVSS | low polyreactivity
11 | QVQLVESGGGLVQAGGSLRLSCAASGRTFTKNAMGWYRQAPGKEREFVAAISKSTGSTYYADSVKGRFTISRDNAKNTVYLQMNSLKPEDTAVYYCNARYRFFIQARWGYIFGYWGQGTQVTVSS | high polyreactivity
12 | QVQLVESGGGLVQAGGSLRLSCAASGRTFTKYAMGWYRQAPGKERELVAAISRSGGSTYYADSVKGRFTISRDNAKNTVYLQMNSLKPEDTAVYYCAARGQYRYSFGDYSWGQGTQVTVSS | high polyreactivity
13 | QVQLVESGGGLVQAGGSLRLSCAASGRTFTLYAMGWYRQAPGKERELVASITSGTRTYYADSVKGRFTISRDNAKNTVYLQMNSLKPEDTAVYYCAKEGYLRTLHRLYDYWGQGTQVTVSS | low polyreactivity
14 | QVQLVESGGGLVQAGGSLRLSCAASGRTFTPYAMGWYRQAPGKERELVAAIDTSGGSTYADSVKGRFTISRDNAKNTVYLQMNSLKPEDTAVYYCAATRHSRVRGGDYWGQGTQVTVSS | low polyreactivity
15 | QVQLVESGGGLVQAGGSLRLSCAASGRTFTPYAMGWYRQAPGKERELVAAISIGGPTNYADSVKGRFTISRDNAKNTVYLQMNSLKPEDTADYYCAADSYYLGRDGFGFYAYTYDYWGQGTEVTVSS | low polyreactivity
16 | QVQLVESGGGLVQAGGSLRLSCAASGRTFTRNAMGWYRQAPGKDRELVAAISYSGGSTYYADSVKGRFTISRDNAKNTVYLQMNSLKPEDTAVYYCNAATSRRSIRYDYWGQGTQVTVSS | high polyreactivity
17 | QVQLVESGGGLVQAGGSLRLSCAASGRTFTRYAMGWYRQAPGKERELVAAISGGGGSTYYADSVKGRFTISRDNAKNTVYLQMNSLKPEDTAVYYCAAGPWFYYWGQGTQVTVSS | low polyreactivity
18 | QVQLVESGGGLVQAGGSLRLSCAASGRTFTRYAMGWYRQAPGKERELVAAISRGGSTYYADSVKGRFTISRDNAKNTVYLQMNSPKPEDTAVYYCAARYGTYTAGNYWGQGTQVTVSS | high polyreactivity
19 | QVQLVESGGGLVQAGGSLRLSCAASGRTFTRYAMGWYRQAPGKERELVATITRGGSTNYADSVKGRFTISRDNAKNTVYLQMNSLKPEDTAVYYCAAGYFIRTRSRYRYDYWGQCTQVTVSS | high polyreactivity
20 | QVQLVESGGGLVQAGGSLRLSCAASGRTFTRYAMGWYRQPPGKESELVAAISRGGNTNYADSVKGRFTISRDNAKNTVYLQMNSLKPEDTAVYYCARVYGGYSVPSAYGSWGQGTQVTVSS | high polyreactivity
21 | QVQLVESGGGLVQAGGSLRLSCAASGRTFTRYAMGWYRQSPGKERELVAAISTSGDSTYYADSVKGRFTISRDNAKNTVYLQMNSLKPVDTAVYYCNTYWTSEYDYWGQGTQVTVSW | low polyreactivity
22 | QVQLVESGGGLVQAGGSLRLSCAASGRTFTSNAMGWYRQAPGKERELVAAITQSGGSTYYADSVKGRFTISRDNAKNTVYLQMNSLKPEDTAVYYCNAETTGRTEYNYWGQGTQVTVSS | low polyreactivity

Row | Sequence | polyreactivity (PSR sort gate)
23 | QVQLVESGGGLVQAGGSLRLSCAASGRTFTSNGMGWYRQAPGKERELVAAITSGTSTYYADSVKGRFTISRDNAKNPVYLQMNSLKPEDTAVYYCNKLVPRGSSYSTVIRGGGYWGQGTQVTVSS | high polyreactivity
24 | QVQLVESGGGLVQAGGSLRLSCAASGRTFTSYAMGCYRQEPGKERELVAAITRGGRTNYADSVKGRFTISRDNAKNTVYLQMNSLKPEDTAVYYCNTEIRLSKYDYWGQGTQVTVSS | low polyreactivity
25 | QVQLVESGGGLVQAGGSLRLSCAASGRTFTTYTMGWYRQAPGKERELVASINYRGGRTYYADSVKGRFTISRDNAKNTVYLQMNSLKPEDTAVYYCAYYPYGYDYWGQGTQVTVSS | high polyreactivity
26 | QVQLVESGGGLVQAGGSLRLSCAASGRTFTVYPMGWYRQAPVKEREFVAAITERGGSTYYADSVKGRFTISRDNAKNTVYLQMNSLKPEDTAVYYCAAVYYWRPGWYVRFDYWGQGTQVTVSS | low polyreactivity
27 | QVQLVESGGGLVQAGGSLRLSCAASGRTFTWNVMGWYIQAPGKERELVAAISSSGGDTYYADSVKGRFTISRDNAKNTVYLHMNSLKPEDTAVYYCAAGQVYSGYEYWGQGTQVTVSS | low polyreactivity
28 | QVQLVESGGGLVQAGGSLRLSCAASGRTFTWNVMGWYRQAPGKERELVAAITTDDRTYADSEKGRFTISRDNAKNTVYLQMNSLKQEDTAVYYCATVVAWTSRPVGEDYWGQGTQVTVSS | low polyreactivity
29 | QVQLVESGGGLVQAGGSLRLSCAASGRTFTYNAMGWYRQAPGKERELVAAITYRGGSTYYADSVKGRFTISRDNAKNTVYLQMNSLKPEDTAVYYCAARVSYYRYNTPHYYYWGQGTQVTVSS | high polyreactivity
30 | QVQLVESGGGLVQAGGSLRLSCAASGRTFTYYAMGWYRQAPGKERELVAAISWSGDDTYYADSVKGRFTISRDNAKNTVYLQMHSLKPEDTAVYYCAAEGGGVYSDYRENTGEDYWGQGTQVTVSS | low polyreactivity
31 | QVQLVESGGGLVQAGGSLRLSCAASGRTFVAKTMGWYRQAPGKERELVAAISSSGGSTYYADSVKGRFTISRDNAKNTVYLQMNSLKPEDTAVYYCAKTHSGWWRYGYWGQGTQVTVSS | high polyreactivity
32 | QVQLVESGGGLVQAGGSLRLSCAASGRTFVANAMGWYRQAPGKERELVAAITSTGSTYYADSVKGRFTISRDNAKNTVYLQMNSLKPEDTAVYYCATYYWLGLSLYDYWGQGSQVTVSS | low polyreactivity
33 | QVQLVESGGGLVQAGGSLRLSCAASGRTFVDYDMGWYRQAPGKERELVADINSGGSTYYADSVKGRFTISRDNAKNTVYLQMNRLKPEDTAVYYCAADDGWGYISSYDYEYWGQGTQVTVSS | high polyreactivity
34 | QVQLVESGGGLVQAGGSLRLSCAASGRTFVGNTMGWYRQAPGKERELVAAISTGDGSTTYADSVKGRFTISRDNAKNTVYLQMNSLKPEDTAVYYCNVKYRASYRTDFEYWGLGTQVTVSS | low polyreactivity
35 | QVQLVESGGGLVQAGGSLRLSCAASGRTFVGYTMGWYRQAPGKERELVAAIDLSDGSTSYADSVKGRFTISRDNAKNSVYLQMNSLKPEDTAVYYCAKTWANVYAGAHDYWGQGTQVTVSS | low polyreactivity
36 | QVQLVESGGGLVQAGGSLRLSCAASGRTFVGYTMGWYRQAPGKERELVAAIDLSDGSTSYADSVKGRFTISRDNAKNTVYLQMNSLKPEDTAVYYCAKSWANVYAGAHDYWGQGTQVTVSS | low polyreactivity
37 | QVQLVESGGGLVQAGGSLRLSCAASGRTFVNNAMGWYRQAPGKERELVAAITRSGGRTYYADSVKGRFTISRDNAKNTVYLQMNSLKPVDTAVYYCATANVRLRHDDYWGQGTQVTVSS | high polyreactivity
38 | QVQLVESGGGLVQAGGSLRLSCAASGRTFVNYALGWYRQAPWKERELVAGISSDGSTYYADSEKGRFTISRDNAKNTVYLQMNSLKPEDTAVYYCATEIRITGLYRYDYWGQGTQVTVSS | low polyreactivity
39 | QVQLVESGGGLVQAGGSLRLSCAASGRTFVPYAMGWYRQAPGKEREFVAVITWGGGSTYYADSVKGRFTISRDNAKNTVYLQMNSLKPEDTAVYYCAARNRRATGLGSRYGYWGQGTQVTVSS | high polyreactivity
40 | QVQLVESGGGLVQAGGSLRLSCAASGRTFVPYAMGWYRQAPGKERELVATNNRSGGTTYYADSVKGRFTISRDNAKNTVYLQMNSLKPEDTAVYYCNKSPYYTVWSTRGNQFSRFYYWGQGTQVTVSS | high polyreactivity
41 | QVQLVESGGGLVQAGGSLRLSCAASGRTFVPYAMGWYRQAPGKEREMVAAISQSGGRTYYTDSVKGRFTISRDNAKNTVYLLMNSLKPEDTAVYYCAARGPYRPPHGDAYYTYVYWGQGTQVTVSS | high polyreactivity
42 | QVQLVESGGGLVQAGGSLRLSCAASGRTFVPYDMGLYRQAPGKERELVAAISSGDSTNYTDSVKGRFTISRDNAKNTVYLQMNSLKPEDTAVYYCAADLTYTMDHWGQGTQVTVSS | low polyreactivity
43 | QVQLVESGGGLVQAGGSLRLSCAASGRTFVPYVMGWYRQAPGKERELVATINWSGGSTYYADSVKGRFTISRDNAKNTVYLQMNSLKPEDTAVYYCAADYYWTYSYYYERFDYWGLGTQVTVSS | low polyreactivity
